B1: F292A CAR (ICAM-1 CAR with the LFA-1 αL I domain carrying the F292A mutation, 4-1BB-CD3ζ) (receptor, part only; not given: hinge, transmembrane, signalling domains, tag, not shown: large carriers)
chain, part: VDLVFLFDGSMSLQPDEFQKILDFMKDVMKKLSNTSYQFAAVQFSTSYKTEFDFSDYVKWKDPDALLKHVKHMLLLTNTFGAINYVATEVFREELGARPDATKVLIIITDGEATDSGNIDAAKDIIRYIIGIGKHFQTKESQETLHKFASKPASEFVKILDTAEKLKDLFTELQKKIYVIE

Key:
[1] = molecular target: Recombinant human EpCAM monomer protein (R&D systems, cat. no. 9277-EP), conjugated with Alexa Fluor 647 (human) (UniProt P16422); test: saturation binding by flow cytometry: CAR-expressing Jurkat T cells stained with serially diluted Alexa Fluor 647-conjugated EpCAM, one-site nonlinear regression of MFI
[2] = molecular target: Recombinant human EpCAM monomer protein (R&D systems, cat. no. 9277-EP), conjugated with Alexa Fluor 647 (human) (UniProt P16422); test: flow cytometry saturation binding: CAR-expressing Jurkat T cells stained with serially diluted AF647-conjugated EpCAM, MFI fitted with the one-site nonlinear regression model
[3] = molecular target: EpCAM on tumor cells (SK-BR3, Capan-2, HT-29, SNU-638, MKN-45, MDA-MB-231, SW-1990) (human) (UniProt P16422); test: cell-based or functional assay
[4] = molecular target: Recombinant human EpCAM monomer protein (R&D systems, cat. no. 9277-EP), conjugated with Alexa Fluor 647 (human) (UniProt P16422); test: saturation binding by flow cytometry on CAR-expressing Jurkat T cells with Alexa Fluor 647-conjugated EpCAM; reference is C215 CAR
[5] = molecular target: Intercellular adhesion molecule-1 (ICAM-1) on tumor cells (SNU-638, MKN-45) (human) (UniProt P05362); test: cell-based or functional assay
Chain of UniProt P05362 (P05362 28-532): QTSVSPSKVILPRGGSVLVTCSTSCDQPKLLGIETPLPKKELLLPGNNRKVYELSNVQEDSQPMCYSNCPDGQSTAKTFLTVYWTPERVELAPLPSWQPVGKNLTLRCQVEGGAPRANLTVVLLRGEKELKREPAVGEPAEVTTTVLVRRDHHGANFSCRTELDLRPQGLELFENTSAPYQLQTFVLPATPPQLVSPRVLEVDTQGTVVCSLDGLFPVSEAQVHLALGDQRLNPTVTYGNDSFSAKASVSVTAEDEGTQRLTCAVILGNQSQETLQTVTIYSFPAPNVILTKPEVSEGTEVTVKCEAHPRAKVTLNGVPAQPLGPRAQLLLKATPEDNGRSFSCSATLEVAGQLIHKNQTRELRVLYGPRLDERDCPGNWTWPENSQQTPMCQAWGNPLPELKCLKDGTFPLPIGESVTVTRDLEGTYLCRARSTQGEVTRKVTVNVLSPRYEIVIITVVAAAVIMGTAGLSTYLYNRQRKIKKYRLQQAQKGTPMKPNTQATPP

Molecule	Kd [1]	Kd [2]	lysis of SNU-638 and MKN-45 wild-type cells at 48 hours (bioluminescence-based cytotoxicity assay, E:T 1:1) [3]	fold difference of KD against C215 CAR [4]	killing of MKN-45 cells at 48 hours (bioluminescence-based cytotoxicity assay, E:T 1:1) [5]	specific lysis of SNU-638 cells at 48 hours (bioluminescence-based cytotoxicity assay, E:T 1:1) [5]
C215 CAR (anti-EpCAM chimeric antigen receptor with the scFv of mouse monoclonal antibody C215, CD28-CD3ζ 2nd generation backbone)	4 nM	3.95 nM				
UBS54 CAR (anti-EpCAM chimeric antigen receptor with the scFv of monoclonal antibody UBS-54, CD28-CD3ζ 2nd generation backbone)	250 nM	253 nM	90%	> 60 fold		
B1					0	40%
